Experiment: yeast display, Sf9 membrane polyspecificity reagent, FACS + sequencing; frameworks hold sequencing errors
Method in brief: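 After 36–48 hours of galactose induction, yeast (Saccharomyces cerevisiae BJ5465) displaying a synthetic nanobody library were stained at 4 °C for 1 hour with 10% biotinylated, detergent-solubilized Sf9 membrane reagent. Streptavidin microbeads enriched the stained cells before FACS sorting into low and high (top ~1%) gates on anti-HA and streptavidin fluorescence. Each clone's polyreactivity label reflects its gate of origin.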

Row | Sequence | polyreactivity (PSR sort gate)
1 | QVQHEESGGGLVQAGGSLRLSCAASGRIFPVNAMGWSRKAPGKERELLAAITRNGGSTYYADSVKGRFTISRDNAKNTVYLQMNSLKPEDTAVSYCAVRVVYGPAWAKMYYWGQGTQVTVSS | high polyreactivity
2 | QVQHEESGGGLVQAGGSLRLSCAASGSIFRGNAMGWYRQAPGNERELVAAITRSGGRTYYADSVKGRFTISRDNAKNTVYLQMNSLKPEDTAVYYCAADYPYGSPTHFDYWGPGTQVTVSS | high polyreactivity
3 | QVQHEESGGGLVQAGGSLRLSCAASGSIFTPTPKGCYRQAPGKERELVAAISSSSDRTYYADSVKGRFTISRDNAKNTVYLEMNSLKPEDTAVYFCAAYAQKRYYWGQGTQVNVSS | high polyreactivity
4 | QVQHVDSAGGIVQAGGILRLSCAASGPTFGKYAMGWYRQQHGKERELVATITRTARTNYADSVKGRFTSSRDNAKNTVYLQMNSRKPEDTAVYYCDAPWRYTFPPQVYGQSYGYWGQGTQVTVSS | high polyreactivity
5 | QVQHVDSGAGLVQAGGSLRLRCSASGLILKDYAMGWSIQPPGKERELVAAISTSAGTTYYADSVKGRFTISRDNAKNTVYLQMKSQKPEETAVYYCAAGYLPYYIRYYHPVTVDYDYWGQGTQVTVSS | low polyreactivity
6 | QVQHVDSGGGLVQAGGSLRLSCAASGSTFSLNAMGWYRQAPGKERELVAAISSGDSTNYADSVKGRFTISRDNAKNTVYLQMNSVKPEDTAVYYCAVEVYYTGFYYSPYAYDYWGQGTQVTVSS | low polyreactivity
7 | QVQHVESARGLVQAGGSLRLSCAASGRTFFSYAMGGYRQAPGKERELVAAITSGGTTYYADSVKGRFTISRDNAKNTVYLQMNSLKPEDTAVYYCAVLGLGQKRGRAFLFPYDYWGQGTQVTVSS | high polyreactivity
8 | QVQHVESCGGLVQAGGSLRLSCAASGFTFASNVMGWYRQAPGKERDLVAAITSGASTNYADSVKGRFTISRDNAKNTFYLQMNSLKPEDTAVYYCAAGRQWYVFYEFDYWGQGTQVTVSS | high polyreactivity
9 | QVQHVESCGGLVQAGGSLRLSCADSGRIFGDYVMGWYRQAPGKERELVASIDTSGGSTYDADSVKGGFTISRDIAKNTVYLQMNSVKPEDSAVYYCAAERKYFVFVYYQGWYDYWGQGTQVTVSS | low polyreactivity
10 | QVQHVESCGGLVQAGGSLRLSCDASGSTFYYYAMGWSRQGPGKERELVAAISLGGGSTYYADSVKGRFTISRDNAKNTVYLHMNSLKPEDSAVYYCAARRVGGGFYTWRNPAYEYWGQGTQVTVSS | high polyreactivity
11 | QVQHVESGAGLVQAGGSLRLSCAASGNTINFYAMGWYRQPPGKESELVASITSGGGTNYADSVKGRFTISRDNAKNTVYLQMNSLKPEDTAVYYCAAQFYDHFRYHFDWGQGTQVTVSS | low polyreactivity
12 | QVQHVESGGALVQAGGSLRLSCADSGRTFIFYAMGWYRQAPGKETELVASTSSGGSTNYADSVKGRFTISRDNAKNTVYLQMNILKPEDTAVYYCATRQYLYYSRGYGYWGQGTKVTVSS | low polyreactivity
13 | QVQHVESGGCLLQAGGSLRLSCAASGSIFEPYTMGWYRQAPGKERELVAAITGSGGSTFYADSVKGRFTISRDNAKNTVYLQMNSLKPEVTALYYCNAYAYPYTDVDYWVQGTQVTVSS | low polyreactivity
14 | QVQHVESGGCLVQAGGSLRLSCAASGRIFRGYAMGWYRQAPGKERELVAAISSRGSTYYADSVKGRFTNSRDNAKNTVYLQMNSLKPEDTAVYYCAKSEYARLSGFRYRTGYNYWGQGTQVTVSS | high polyreactivity
15 | QVQHVESGGCLVQAGGSRRLSCAASVSIFIPNAMGWSRQAHGKERELVAAISWSGASTYYADSVKRRFTISRDNAKNTVYLQMISLKPEDTAVYYCAAYYAYRRGYDYWGQGTQVTVSS | high polyreactivity
16 | QVQHVESGGCLVQAGRSLRLSCAASGRTFFPYGMGWDRQAPAKEREFVATISWSGGSTHYADSVKGRFTISRDNAKYTVYLEMNSLKPEDTAVYFCAAGNSLYWYNSGNYWGQGTQVTVSS | low polyreactivity

Row | Sequence | polyreactivity (PSR sort gate)
17 | QVQHVESGGGILQAGRSLRLICAASGRLYLSNVMAWNRQAPGTERQLVAAITGRGSSTYYADSVKGRFTISRDNAKNTVYLLINSLKPEDSAVYSCAKRLPYSSGYEYWGQGTQVTVSS | high polyreactivity
18 | QVQHVESGGGIVQAGGSLRLSCAASGHIFFYYTMGWYRQAPGKERELVAGITIGGSTNYADSVKGRFTISRDNAKNTVYLQMNSLKPEDTAVYYCNVVKYVYIYSYWEYYYWGQGTQVTVSS | low polyreactivity
19 | QVQHVESGGGIVQAGGSLRLSCAASGITFSRKAMGRYRQATGKERELVATITSGGSTNYADSVKGRFTISRDNAKNTVYLQMNRLKPEDTAVYYCNAVWNTFISGRSYDYWGQGTQVTVSS | low polyreactivity
20 | QVQHVESGGGIVQAGGSLRLSCAASGSTFFGNGMGWYRQAPGKERELVAAISGGGSTHYADSVKGRFTSSRDNAKNTVYVQMNSLKPEDTAVYYCSPSRDTVGRGPIQRDYWGQGTQVTVSS | low polyreactivity
21 | QVQHVESGGGLDQAGGSLRLSCAASGRIYCTNAMGWYRQAPGKESELVADITSGGSTNYADSVKGRFSISRDNAKNTVYLQMTSLKPEDTAVYYCAADVIGDLRWYRDEYWGQGTQVTVAS | low polyreactivity
22 | QVQHVESGGGLDQAGGSLRLSCAASGRTFAPYAMGWYRQAPGKEREFVAGITWSSSSTYADSVKGRFTISRDNAKNTVYVQMNSLKPDDPAVYYCAARHAKGGNRHYYWGQGTQVTVSS | high polyreactivity
23 | QVQHVESGGGLDQGRGSLSLSCAASARNLSSNVLGRYRQAPGNETEFVASITYSGSSTYYADSVKGRFTISRDYAKNTFYLQMNSLKPEDTAVYYCATRYGYSDGDYWGQGTQVTVSS | low polyreactivity
24 | QVQHVESGGGLGQAGGSLRLSCAASGRTFDGNVKGWYIQAPGKERELVAAMTASGARTYYADSVKRRFTISRDNAKNTVYLQMNSLKPEDTAVYYCAAVCRRVSAWYYYWGQGTQVTVSS | high polyreactivity
25 | QVQHVESGGGLLQAGGSLRLSCAASGMGWYRQAPGKERELVAVIRWSSGSTYYADSVKGRFTISRDNAKNTVYLQMNSLKPDDTAVYYCNARDQYYGDPSSQPDTRSRSDYWGQGTQVTVSS | low polyreactivity
26 | QVQHVESGGGLVLAGGSLRLSCAASGRTFAYNAMGWYRQAPGKERELVAAISRSGGSTYYADSVKGRFTISRDNPKNTVYLQMYSLKPEDTAVYYSNKVTHSYVYFAAGDYWGQGTQVTVSS | high polyreactivity
27 | QVQHVESGGGLVQAGASLRLSCAASGTTFIGYERGRSRQAPGKVRELVAAISYSDGTYYADSVKGRFTISRENAKNTVYLQMNSLKPEDTAVYYCAADSLFYRYDYWGQGTQVTVSS | low polyreactivity
28 | QVQHVESGGGLVQAGCSLRLSCAASGSIFVIYAMGWYRQAPGKERELVAAIRSTGSSNYADSVKGRFTISRDNAKNTVYLQMNSLKPEDTAVYYCAAYRRRTYAVNIEGGYWGQGTQVTVSS | high polyreactivity
29 | QVQHVESGGGLVQAGGGLRISCAASGSIFHVNAMGWSRLAPGKERELVAGISDGGSTYYADSVKGRFTFSRDTAKHTVYLQLNSLKPEDTAVYYSGAECEQWYSYVLSYDWEYDYWGQGTQVTVSS | low polyreactivity
30 | QVQHVESGGGLVQAGGRLRLSCAASGSIFYSNAIGWYRQAPGKEWELVATITWSGGRTYYADSVKGRFTISRDNAKNTVYLQMNSLKPEDTAVYYCAAVSIYWGQGTQVTVSS | low polyreactivity
31 | QVQHVESGGGLVQAGGSHRLSCAASGRIFTQNSMGWYRQAPGKERELVAAINATDGSTYADSVKGRFTISRDNAKNTVYLQMKSLKREDTSVYYCYFTGGPYDFTRWSEFDHWGQGTQVTVSS | low polyreactivity

— the nanobody polyreactivity screen of Harvey et al. (2022)
